Laboratory results: patent US20110165161A1, “ANTI-EPCAM ANTIBODIES THAT INDUCE APOPTOSIS OF CANCER CELLS AND METHODS USING SAME” (priority 2009, published 2011)
Positions count from the first letter of the chain named.

What was measured:
[1] = target: T1, human EpCAM (epithelial cell adhesion/activating molecule) (human, UniProt P16422 24-314); test: flow cytometry, CHO/EpCAM cells, 0.1 µg/ml antibody
T1 construct: also called hEpCAM; CHO/EpCAM
T1 sequence: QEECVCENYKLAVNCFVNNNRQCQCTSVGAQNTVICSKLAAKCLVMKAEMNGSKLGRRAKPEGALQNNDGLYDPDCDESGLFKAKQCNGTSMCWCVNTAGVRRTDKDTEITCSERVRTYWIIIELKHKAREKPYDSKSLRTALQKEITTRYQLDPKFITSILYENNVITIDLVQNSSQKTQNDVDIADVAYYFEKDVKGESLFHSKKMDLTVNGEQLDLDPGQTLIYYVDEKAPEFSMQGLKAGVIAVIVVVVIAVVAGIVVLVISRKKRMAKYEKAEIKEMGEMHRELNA
Experimental: A 300× dilution of human cell hyper-immune serum (HPS 300×) was used as binding positive control for both cell lines here. After 1 hr incubation at 4° C., cells were washed twice with 200 μl FACS buffer (1×PBS containing 1% FBS), stained with 100 μl of 1 μg/ml goat-anti-mouse IgG-PE (Southern Biotech, Cat. No. 1032-09) in FACS buffer and then incubated at 4° C. for 30 min. Cells were washed thrice with FACS buffer and analyzed by flow cytometry (BD LSR, BD Life Sciences).

EGFI-Cr1 T49A = target: T2, EGFI-Cr1 T49A (human, UniProt P16422 24-63); test: direct ELISA, coated EGFI-Cr1 fusion, 0.1 µg/ml antibody
T2 construct: not shown: the constant region of human immunoglobulin gamma 1 heavy chain (Cr1) fused at the C-terminus
T2 chain: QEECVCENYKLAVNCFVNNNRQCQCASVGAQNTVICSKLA
Experimental: (§1) A direct ELISA was used for testing the reactivity of anti-EpCAM antibodies toward variant EpCAM mutants. Briefly, purified EpCAM EGF-1 fusion proteins (WT, Q24A, E25K, E26D, A35T, N37R, F39A, V40E, N41A, N42E, N43A, R44G, Q45A, Q47A or T49A) and irrelevant control (CEA-Cr1) were pre-diluted to 0.5 μg/ml in coating buffer (8.4 g NaHCO₃, 3.4 g Na₂CO₃ in 1 L H₂O, pH 9.5) and aliquoted (100 μl/well) into 96-well plates. […] Plates were then washed 3 times with PBST followed by the addition of the enzyme substrate TMB (BD Biosciences, Cat. No. 555214). […] The optical densities at 450 nm wavelength were measured on an ELISA plate reader.

EGFI-Cr1 Q24A = target: T3, EGFI-Cr1 Q24A (human, UniProt P16422 25-63); test: as above
T3 construct: not shown: The fused constant region of human immunoglobulin gamma 1 heavy chain (Cr1)
T3 chain: T2 chain with Q1A, A26T
Experimental: as §1

EGFI-Cr1 E25K = target: T4, EGFI-Cr1 E25K (human, UniProt P16422 24-63); test: as above
T4 construct: not shown: The fused constant region of human immunoglobulin gamma 1 heavy chain (Cr1)
T4 chain: T2 chain with E2K, A26T
Experimental: as §1

EGFI-Cr1 V40E = target: T5, EGFI-Cr1 V40E (human); test: as above
T5 construct: not shown: The fused constant region of human immunoglobulin gamma 1 heavy chain (Cr1)
T5 chain: T2 chain with V17E, A26T
Experimental: as §1

EGFI-Cr1 N43A = target: T6, EGFI-Cr1 N43A (human, UniProt P16422 24-63); test: as above
T6 construct: not shown: the constant region of human immunoglobulin gamma 1 heavy chain (Cr1) fused at the C-terminus
T6 chain: T2 chain with N20A, A26T
Experimental: as §1

EGFI-Cr1 E26D = target: T7, EGFI-Cr1 E26D (human, UniProt P16422 24-63); test: as above
T7 construct: not shown: The fused constant region of human immunoglobulin gamma 1 heavy chain (Cr1)
T7 chain: T2 chain with E3D, A26T
Experimental: as §1

EGFI-Cr1 Q47A = target: T8, EGFI-Cr1 Q47A (human, UniProt P16422 24-63); test: as above
T8 construct: not shown: the constant region of human immunoglobulin gamma 1 heavy chain (Cr1) fused at the C-terminus
T8 chain: T2 chain with Q24A, A26T
Experimental: as §1

EGFI-Cr1 N41A = target: T9, EGFI-Cr1 N41A (human, UniProt P16422 24-63); test: as above
T9 construct: not shown: The fused constant region of human immunoglobulin gamma 1 heavy chain (Cr1)
T9 chain: T2 chain with N18A, A26T
Experimental: as §1

EGFI-Cr1 F39A = target: T10, EGFI-Cr1 F39A (human, UniProt P16422 24-63); test: as above
T10 construct: not shown: The fused constant region of human immunoglobulin gamma 1 heavy chain (Cr1)
T10 chain: T2 chain with F16A, A26T
Experimental: as §1

EGFI-Cr1 N42E = target: T11, EGFI-Cr1 N42E (human, UniProt P16422 24-63); test: as above
T11 construct: not shown: the constant region of human immunoglobulin gamma 1 heavy chain (Cr1) fused at the C-terminus
T11 chain: T2 chain with N19E, A26T
Experimental: as §1

EGFI-Cr1 N37R = target: T12, EGFI-Cr1 N37R (human); test: as above
T12 construct: not shown: The fused constant region of human immunoglobulin gamma 1 heavy chain (Cr1)
T12 chain: T2 chain with N14R, A26T
Experimental: as §1

[2] = target: T13, EGFI-Cr1 wild type (first EGF-like repeat of human EpCAM fused to the constant region of human immunoglobulin … (human, UniProt P01857-1 99-330 = IgG part)); test: as above
T13 construct: cDNA covered aa 1-63; Expressed in COS-7 cells; also called WT; EpCAM EGF-1 fusion protein WT
Experimental: as §1

EGFI-Cr1 A35T = target: T14, EGFI-Cr1 A35T (human, UniProt P16422 24-63); test: as above
T14 construct: not shown: The fused constant region of human immunoglobulin gamma 1 heavy chain (Cr1)
T14 chain: T2 chain with A12T, A26T
Experimental: as §1

EGFI-Cr1 R44G = target: T15, EGFI-Cr1 R44G (human, UniProt P16422 24-63); test: as above
T15 construct: not shown: the constant region of human immunoglobulin gamma 1 heavy chain (Cr1) fused at the C-terminus
T15 chain: T2 chain with R21G, A26T
Experimental: as §1

EGFI-Cr1 Q45A = target: T16, EGFI-Cr1 Q45A (human, UniProt P16422 24-63); test: as above
T16 construct: not shown: the constant region of human immunoglobulin gamma 1 heavy chain (Cr1) fused at the C-terminus
T16 chain: T2 chain with Q22A, A26T
Experimental: as §1

[3] = target: T1, human EpCAM (epithelial cell …); test: cell-based or functional assay
[4] = target: T1, human EpCAM (epithelial cell …); test: cell-based or functional assay; remark: listed apart in the source

MFI [1]: 1350 MFI
relative binding activity (% of WT) (EGFI-Cr1 T49A): 67%
relative binding activity (% of WT) (EGFI-Cr1 Q24A): 47%
relative binding activity (% of WT) (EGFI-Cr1 E25K): 4%
relative binding activity (% of WT) (EGFI-Cr1 V40E): 2%
relative binding activity (% of WT) (EGFI-Cr1 N43A): 65%
relative binding activity (% of WT) (EGFI-Cr1 E26D): 57%
relative binding activity (% of WT) (EGFI-Cr1 Q47A): 33%
relative binding activity (% of WT) (EGFI-Cr1 N41A): 2%
relative binding activity (% of WT) (EGFI-Cr1 F39A): 23%
relative binding activity (% of WT) (EGFI-Cr1 N42E): 83%
relative binding activity (% of WT) (EGFI-Cr1 N37R): 69%
relative binding activity (% of WT) [2]: 100%
relative binding activity (% of WT) (EGFI-Cr1 A35T): 39%
relative binding activity (% of WT) (EGFI-Cr1 R44G): 2%
relative binding activity (% of WT) (EGFI-Cr1 Q45A): 8%
% of Annexin V + PI staining (untreated background subtracted), NCI-H358, 10 µg/ml mAb, Exp1 [3]: 45%
% of Annexin V + PI staining (untreated background subtracted), NCI-H358, 10 µg/ml mAb, Exp2 [3]: 40%
% of Annexin V + PI staining (untreated background subtracted), NCI-H358, 10 µg/ml mAb, Exp3 [3]: 44%
% of Annexin V + PI staining (untreated background subtracted), NCI-H358, 10 µg/ml mAb, Exp4 [3]: 43%
% of Annexin V + PI staining (untreated background subtracted), NCI-H358, 10 µg/ml mAb, Exp5 [3]: 40%
% Annexin V/PI-positive cells, DLD-1, 1.0 µg/ml mAb [4]: 28%
% Annexin V/PI-positive cells, DLD-1, 3.0 µg/ml mAb [4]: 53%
% Annexin V/PI-positive cells, DLD-1, 10 µg/ml mAb [4]: 62%
% Annexin V/PI-positive cells, FaDu, 1.0 µg/ml mAb [4]: 26%
% Annexin V/PI-positive cells, FaDu, 3.0 µg/ml mAb [4]: 39%
% Annexin V/PI-positive cells, FaDu, 10 µg/ml mAb [4]: 37%
% Annexin V/PI-positive cells, LNCaP, 1.0 µg/ml mAb [4]: 38%
% Annexin V/PI-positive cells, LNCaP, 3.0 µg/ml mAb [4]: 43%
% Annexin V/PI-positive cells, LNCaP, 10 µg/ml mAb [4]: 44%
% Annexin V/PI-positive cells, NCI-H520, 1.0 µg/ml mAb [4]: 38%
% Annexin V/PI-positive cells, NCI-H520, 3.0 µg/ml mAb [4]: 42%
% Annexin V/PI-positive cells, NCI-H520, 10 µg/ml mAb [4]: 49%
% Annexin V/PI-positive cells, NCI-N87, 1.0 µg/ml mAb [4]: 41%
% Annexin V/PI-positive cells, NCI-N87, 3.0 µg/ml mAb [4]: 51%
% Annexin V/PI-positive cells, NCI-N87, 10 µg/ml mAb [4]: 57%
% Annexin V/PI-positive cells, NIH:OVCAR-3, 1.0 µg/ml mAb [4]: 46%
% Annexin V/PI-positive cells, NIH:OVCAR-3, 3.0 µg/ml mAb [4]: 52%
% Annexin V/PI-positive cells, NIH:OVCAR-3, 10 µg/ml mAb [4]: 55%
% Annexin V/PI-positive cells, T-47D, 1.0 µg/ml mAb [4]: 25%
% Annexin V/PI-positive cells, T-47D, 3.0 µg/ml mAb [4]: 40%
% Annexin V/PI-positive cells, T-47D, 10 µg/ml mAb [4]: 44%
B1: murine monoclonal antibody 6D11 (antibody, mouse IgG1, V domains shown)
VH: EVQLVESGGDLVKPGGSLKLSCAASGFAFDSYGMSWIRQTPGTRLEWVATISSGGYYTYYEDNVKGRFIISRDNAKNTLDLQMSGLKSEDAATYYCARRGNYDVDYYAMDYWGQGTSVIVSS
VL: DVVLTQIPLSLPVSLGDQASISCRSSQSLEHSNGNTYLHWYLQKPGQSPKLLIYKVSNRFSGVPDRFSGSGSGTDFTLKISRVEAEDLGVYFCSQSTHVPPWTFGGGTKLEFKR
notes: Mouse IgG1, kappa, from hybridoma; also called m338-6D11.8
